The results in this text go back to patent publication US7951356B1, “Tissue factor compositions and kits for coagulation and tumor treatment” (Board of Regents, The University of Texas System, priority 1997, dated 2011).

To fix the notation:
B1: H6-tTF220-cys-C′: tTF219 mutated to carry Ile-Cys after amino acid 219; SEQ ID NO:6 (protein)
chain: HHHHHHAMALVPRGSGTTNTVAAYNLTWKSTNFKTILEWEPKPVNQVYTVQISTKSGDWKSKCFYTTDTECDLTDEIVKDVKQTYLARVFSYPAGNVESTGSAGEPLYENSPEFTPYLETNLGQPTIQSFEQVGTKVNVTVEDERTLVRRNNTFLSLRDVFGKDLIYTLYYWKSSSSGKKTAKTNTNEFLIDVDKGENYCFSVQAVIPSRTVNRKSTDSPVECMGQEKGEFREIC
B2: “standard” tTF: “standard” tTF219 preparation obtained from Dr. Thomas Edgington (The Scripps Research Institute) (protein)
chain: GSGTTNTVAAYNLTWKSTNFKTILEWEPKPVNQVYTVQISTKSGDWKSKCFYTTDTECDLTDEIVKDVKQTYLARVFSYPAGNVESTGSAGEPLYENSPEFTPYLETNLGQPTIQSFEQVGTKVNVTVEDERTLVRRNNTFLSLRDVFGKDLIYTLYYWKSSSSGKKTAKTNTNEFLIDVDKGENYCFSVQAVIPSRTVNRKSTDSPVECMGQEKGEFRE
B3: tTF221-cys-C′: tTF221-cys-C′, tested beside H6-tTF221-cys-C′ (FIG. 7) (protein)
chain: GSGTTNTVAAYNLTWKSTNFKTILEWEPKPVNQVYTVQISTKSGDWKSKCFYTTDTECDLTDEIVKDVKQTYLARVFSYPAGNVESTGSAGEPLYENSPEFTPYLETNLGQPTIQSFEQVGTKVNVTVEDERTLVRRNNTFLSLRDVFGKDLIYTLYYWKSSSSGKKTAKTNTNEFLIDVDKGENYCFSVQAVIPSRTVNRKSTDSPVECMGQEKGEFREIFC
B4: IgG-H6—N′-cys-tTF219 (conjugate)
chain: HHHHHHAMALVPRGSCGTTNTVAAYNLTWKSTNFKTILEWEPKPVNQVYTVQISTKSGDWKSKCFYTTDTECDLTDEIVKDVKQTYLARVFSYPAGNVESTGSAGEPLYENSPEFTPYLETNLGQPTIQSFEQVGTKVNVTVEDERTLVRRNNTFLSLRDVFGKDLIYTLYYWKSSSSGKKTAKTNTNEFLIDVDKGENYCFSVQAVIPSRTVNRKSTDSPVECMGQEKGEFRE
modifications: left off: large carriers
B5: tTF220-cys-C′: tTF220-cys-C′, tested beside H6-tTF220-cys-C′ (FIG. 6) (protein)
chain: GSGTTNTVAAYNLTWKSTNFKTILEWEPKPVNQVYTVQISTKSGDWKSKCFYTTDTECDLTDEIVKDVKQTYLARVFSYPAGNVESTGSAGEPLYENSPEFTPYLETNLGQPTIQSFEQVGTKVNVTVEDERTLVRRNNTFLSLRDVFGKDLIYTLYYWKSSSSGKKTAKTNTNEFLIDVDKGENYCFSVQAVIPSRTVNRKSTDSPVECMGQEKGEFREIC
B6: H6-tTF219-cys-C′: tTF219 with (His)6 and a Cys after amino acid 219; SEQ ID NO:3 (protein)
chain: HHHHHHAMALVPRGSGTTNTVAAYNLTWKSTNFKTILEWEPKPVNQVYTVQISTKSGDWKSKCFYTTDTECDLTDEIVKDVKQTYLARVFSYPAGNVESTGSAGEPLYENSPEFTPYLETNLGQPTIQSFEQVGTKVNVTVEDERTLVRRNNTFLSLRDVFGKDLIYTLYYWKSSSSGKKTAKTNTNEFLIDVDKGENYCFSVQAVIPSRTVNRKSTDSPVECMGQEKGEFREC
B7: H6-tTF221-cys-C′: tTF219 mutated to carry Ile-Phe-Cys after amino acid 219; SEQ ID NO:7 (protein)
chain: HHHHHHAMALVPRGSGTTNTVAAYNLTWKSTNFKTILEWEPKPVNQVYTVQISTKSGDWKSKCFYTTDTECDLTDEIVKDVKQTYLARVFSYPAGNVESTGSAGEPLYENSPEFTPYLETNLGQPTIQSFEQVGTKVNVTVEDERTLVRRNNTFLSLRDVFGKDLIYTLYYWKSSSSGKKTAKTNTNEFLIDVDKGENYCFSVQAVIPSRTVNRKSTDSPVECMGQEKGEFREIFC
B8: H6-tTF221-cys-C′ dimer: chemically conjugated dimer of SEQ ID NO:7 (protein)
chain: B7 chain
modifications: chemically conjugated dimer
B9: H6—N′-cys-tTF219: tTF219 with (His)6 and a Cys in front of the N′-terminus; SEQ ID NO:2 (protein)
chain: B4 chain
B10: H6—N′ cys-tTF219 dimer: chemically conjugated dimer of SEQ ID NO:2 (protein)
chain: B4 chain
modifications: chemically conjugated dimer
B11: Fab′-H6—N′-cys-tTF219 (conjugate)
chain: B4 chain
modifications: left off: another chain or arm of the molecule; large carriers

The subject of the first test is citrated mouse plasma. The test can be described thus: In vitro coagulation assay: tTF constructs localized on A20 lymphoma cells via bispecific antibody B21-2/10H10. The class given is cell-based. The following applies: A20 cells coated with B21-2/10H10; FIG. 5-8, 15. How it is done: This assay was used to verify that tTF, various derivatives and mutants thereof, and immunoglobulin-tTF conjugates acquire coagulation inducing activity once localized at a cell surface. A20 lymphoma cells (I-A^d positive) (2×10^6 cells/ml, 50 μl) were incubated for 1 h at room temperature with a bispecific antibody (50 μg/ml, 25 μl) consisting of a Fab′ arm of the B21-2 antibody directed against I-A^d linked to a Fab′ arm of the 10H10 antibody directed against a non-inhibitory epitope on tTF. The cells were washed at room temperature and varying concentrations of tTF, derivatives or mutants thereof, or immunoglobulin-tTF conjugates were added for 1 hour at room temperature. The bispecific antibody captures the tTF or tTF linked to immunoglobulin, bringing it into close approximation to the cell surface, where coagulation can proceed.
The cells were washed again at room temperature, resuspended in 75 μl of PBS and warmed to 37° C. […] The time for the first fibrin strands to form was recorded. Clotting time was plotted against tTF concentration and curves compared with standard curves prepared using standard tTF219 preparations.
For B1, the “concentration applied to the cells at which plasma coagulated in 50 seconds” value (“concentration applied to the cells” for short) stood at 0.5 nM.
On the same count and under the same terms, in the case of B2 it was 3 nM; in that of B3, 0.5 nM.
On the same count and under the same terms, the same measure for B4: 5 nM; for B5: 0.5 nM.
On the same count and under the same terms, in the case of B6 it was 3 nM; in that of B7, 0.5 nM.
Turning to B8, the “concentration applied to the cells” value is 4 nM.

The same test, now with this note: A20 cells coated with B21-2/10H10; FIG. 5-8, 15; listed as H6-tTF221-cys-C′ monomer.
Regarding B7, the “concentration applied to the cells” value is 1 nM.

The same test, now with this note: localized on A20 cells via B21-2/10H10.
As for B4, the “fold less active than tTF219 at inducing coagulation of plasma” value came out at 5 fold.
As for B8, the “fold less active than tTF219 at inducing coagulation of plasma” value stood at 4 fold.

The same test, now with this note: plasma coagulation.
Regarding B1, the “coagulation-inducing activity once localized on A20 cells via B21-2/10H10, in words (compared with tTF219)” value is on record as “as active as tTF219”.
Same read-out and setting: the same measure for B3: “as active as tTF219”; for B9: “as active as tTF”; for B10: “as active as tTF219 itself”.
On the same count and under the same terms, in the case of B5 it was “as active as tTF219”; in that of B6, “as active as tTF”; in that of B7, “as active as tTF219”.

A further test deals with factor X. The test can be described thus: Factor Xa production assay (chromogenic substrate S-2765) with constructs localized on A20 cells. The test is classed as biochemical. The note with it: presence of Factors II, VII and IX, B21-2/10H10, FIG. 17. Here is the method: The assay measures factor X to Xa conversion rate by means of a chromophore-generating substrate (S-2765) for factor Xa.
A20 cells (2×10^7 cells) were suspended in 10 ml medium containing 0.2% w/v sodium azide. To 2.5 ml cell suspension were added 6.8 μg of B21-2/10H10 “capture” bispecific antibody for 50 minutes at room temperature. The cells were washed and resuspended in 2.5 ml medium containing 0.2% w/v sodium azide. The tTF and immunoglobulin-tTF conjugates dissolved in the same medium were distributed in 100 μl volumes at a range of concentrations into wells of 96-well microtiter plates. To the wells was then added 100 μl of the cell/bispecific antibody suspension. The plates were incubated for 50 minutes at room temperature.
The plates were centrifuged, the supernatants were discarded and the cell pellets were resuspended in 250 μl of Wash Buffer (150 mM NaCl: 50 mM Tris-HCl, pH 8; 0.2% w/v bovine serum albumin). The cells were washed again and cells resuspended in 100 μl of a 12.5-fold dilution of Proplex T (Baxter, Inc.) containing Factors II, VII, IX and X in Dilution Buffer (Wash Buffer supplemented with 12.5 mM calcium chloride). Plates were incubated at 37° C. for 30 minutes. To each well was added Stop Solution (12.5 mM sodium ethylenediaminetetracetic acid (EDTA)) in wash buffer. Plates were centrifuged. […] The optical density of each solution was measured at 409 nm. […]
Turning to B11, the “activity at inducing Xa formation compared with H6—N′-cys-tTF219” value is recorded as “as active as H6—N′-cys-tTF219 itself”.
Consider B4, for which the “fold less active than H6—N′-cys-tTF219 at inducing Xa formation” value was determined as 2 fold.
